This is an account of results in patent US20030105024A1 (STATE OF OREGON, published 2003).

The labels stand for the following.
B7: rat melanocortin-3 receptor (receptor)
chain: MNSSCCPSSSYPTLPNLSQHPAAPSASNRSGSGFCEQVFIKPEVFLALGIVSLMENILVILAVVRNGNLHSPMYFFLLSLLQADLLVSLSNSLETIMIVVINSDSLTLEDQFIQHMDNIFDSMICISLVASICNLLAIAVDRYVTIFYALRYHSIMTVRKALSLIVAIWVCCGICGVMFIVYSESKMVIVCLITMFFAMVLLMGTLYIHMFLFARLHVQRIAALPPADGLAPQQHSCMKGAVTITILLGVFIFCWAPFFLHLVLIITCPTNPYCICYTAHFNTYLVLIMCNSVIDPLIYAFRSLELRNTFKEILCGCNGMNVG
notes: Stably expressed in human 293 cells from pcDNA/neo I; also called rat MC-3 receptor; rat MC3-R

No end group written: not given here.

For experiment [1], the target named is T1, mouse αMSH (MC-1) receptor (mouse) (UniProt Q01727).
T1 sequence: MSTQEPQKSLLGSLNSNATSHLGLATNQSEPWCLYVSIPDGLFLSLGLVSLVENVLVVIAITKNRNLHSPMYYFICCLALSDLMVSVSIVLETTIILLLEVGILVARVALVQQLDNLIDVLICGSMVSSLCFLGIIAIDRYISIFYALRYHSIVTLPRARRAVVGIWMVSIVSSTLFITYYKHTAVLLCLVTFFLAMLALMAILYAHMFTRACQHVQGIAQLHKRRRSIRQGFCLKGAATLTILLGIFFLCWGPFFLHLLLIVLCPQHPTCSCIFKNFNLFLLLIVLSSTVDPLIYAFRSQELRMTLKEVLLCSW
The experiment is described as follows: cell-based or functional assay.

Experiment [2] deals with T2, human melanocortin 4 receptor (human, UniProt P32245 1-332).
T2 chain: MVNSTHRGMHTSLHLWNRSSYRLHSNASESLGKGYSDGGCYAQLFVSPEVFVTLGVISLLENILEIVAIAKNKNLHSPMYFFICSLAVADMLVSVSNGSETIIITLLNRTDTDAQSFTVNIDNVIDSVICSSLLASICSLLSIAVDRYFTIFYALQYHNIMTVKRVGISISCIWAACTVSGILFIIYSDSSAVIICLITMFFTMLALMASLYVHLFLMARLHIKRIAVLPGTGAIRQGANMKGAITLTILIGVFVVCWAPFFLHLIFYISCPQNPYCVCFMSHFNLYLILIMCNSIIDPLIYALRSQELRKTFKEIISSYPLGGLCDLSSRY
Briefly: cell-based or functional assay.

For experiment [3], the target named is mouse MC-5 melanocortin receptor (mouse) (UniProt P41149). The experiment is described as follows: cell-based or functional assay.
Experiment [4] deals with B7. Briefly: cell-based or functional assay.
In experiment [5] the target is human MC-3 receptor (human) (UniProt P41968). Briefly: cell-based or functional assay.
Experiment [6] has as its target B7. The experiment is described as follows: competition with 125I-NDP-MSH on suspended 293 cells expressing rat MC-3 receptor.
The target in the next experiment is T3, murine agouti peptide (mouse, UniProt Q03288 23-131, limits assumed).
T3 construct: Preparation was not homogeneous; also called endogenous mouse agouti peptide
T3 sequence (looked up): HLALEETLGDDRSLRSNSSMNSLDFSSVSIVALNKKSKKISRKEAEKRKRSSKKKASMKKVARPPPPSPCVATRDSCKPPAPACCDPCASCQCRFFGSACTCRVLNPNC
Briefly: competition with 125I-[Nle^4, D-Phe^7]α-MSH on 293 cells expressing rat MC-3 receptor; results not shown.

A word on the Ki: it is a measure of affinity in units of concentration, obtained from inhibition or displacement. Low readings indicate higher affinity, high ones lower affinity.

Chain of human MC-3 receptor (human) (P41968 whole entry): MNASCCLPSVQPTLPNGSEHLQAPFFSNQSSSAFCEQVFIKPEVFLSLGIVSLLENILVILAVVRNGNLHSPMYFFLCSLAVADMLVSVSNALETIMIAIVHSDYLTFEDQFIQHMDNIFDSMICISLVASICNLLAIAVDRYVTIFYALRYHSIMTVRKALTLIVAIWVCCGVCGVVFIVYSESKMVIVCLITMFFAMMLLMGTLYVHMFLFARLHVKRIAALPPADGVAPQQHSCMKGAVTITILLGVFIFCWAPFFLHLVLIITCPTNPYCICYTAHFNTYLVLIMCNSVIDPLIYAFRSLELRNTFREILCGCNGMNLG
Chain of mouse MC-5 melanocortin receptor (mouse) (P41149 whole entry): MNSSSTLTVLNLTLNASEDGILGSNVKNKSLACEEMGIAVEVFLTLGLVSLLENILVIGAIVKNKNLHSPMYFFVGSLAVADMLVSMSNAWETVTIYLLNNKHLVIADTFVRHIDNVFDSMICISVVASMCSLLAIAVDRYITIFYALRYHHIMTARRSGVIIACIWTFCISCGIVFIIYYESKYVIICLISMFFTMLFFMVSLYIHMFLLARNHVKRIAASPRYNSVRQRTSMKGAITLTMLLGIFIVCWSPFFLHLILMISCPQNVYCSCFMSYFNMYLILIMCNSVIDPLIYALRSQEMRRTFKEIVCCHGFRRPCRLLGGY

“Nle^4, D-Phe^7-αMSH (from UniProt P01189 138-150) (peptide)” displayed an EC50, intracellular cAMP in experiment [1] of 0.028 nM. The molecule further yielded an Ec50, adenylate cyclase activity in experiment [2] of 11 pM.

Molecule “βMSH (from UniProt P01189 217-234) (peptide)” came in with an EC50, adenylate cyclase / cAMP-dependent β-galactosidase in experiment [3] of 5 nM.

Consider “γ2-MSH (from UniProt P01189 77-88) (peptide)”, for which, in experiment [4], the Ec50, intracellular cAMP was determined as 3 nM.

Regarding “desacetyl-αMSH (from UniProt P01189 138-150) (peptide)”, the Ec50, intracellular cAMP in experiment [4] is 8 nM.

For “SHU9119, Ac-Nle^4-cyclo(Asp^5, D-Nal(2)^7, Lys^10) αMSH-(4-10)-amide (from UniProt P01189 141-147) (peptide)”, in experiment [5], the pA2 (method of Schild) is 8.3.

B1: ACTH4-10 (peptide, UniProt P01189 141-147, looked up)
peptide: MEHFRWG
notes: domain: ACTH4-10
As to B1, the “Ec50, intracellular cAMP” value in experiment [4] came out at 100 nM. Also, in experiment [2], the “Ec50, adenylate cyclase activity” value was over 100000 pM.

B2: adrenocorticotropic hormone (peptide, UniProt P01189 138-176, looked up)
peptide: SYSMEHFRWGKPVGKKRRPVKVYPNGAEDESAEAFPLEF
Turning to B2, the EC50, intracellular cAMP in experiment [1] amounted to 8 nM. The Ec50, intracellular cAMP in experiment [4] was 4 nM. Besides, the Ec50, adenylate cyclase activity in experiment [2] was determined as 680 pM.

B3: γ3-MSH (peptide, UniProt P01189 77-102, looked up)
peptide: YVMGHFRWDRFGRRNSSSSGSSGAGQ
modifications: ends and bridges not checked
B3 came in with an Ec50, intracellular cAMP in experiment [4] of 6 nM.

B4: γ1-MSH (peptide, UniProt P01189 77-87, looked up)
peptide: YVMGHFRWDRF
modifications: ends and bridges not checked
Regarding B4, the Ec50, intracellular cAMP in experiment [4] was determined as 3 nM.

B5: γ-melanocyte stimulating hormone (peptide, UniProt P01189 77-88, looked up)
peptide: YVMGHFRWDRFG
notes: domain: γMSH; Printed without an index; also called γMSH; γ-MSH
Turning to B5, the Ki in experiment [6] was about 50 nM.

B6: α-melanocyte stimulating hormone (peptide, UniProt P01189 138-150, looked up)
peptide: SYSMEHFRWGKPV
modifications: ends and bridges not checked
notes: domain: αMSH; also called αMSH; α-MSH
Regarding B6, the “Ec50, intracellular cAMP” value in experiment [4] was determined as 4 nM. The molecule further returned an inhibition constant (Ki) in experiment [6] of about 100 nM.

B7: in the experiment with murine agouti peptide, the binding result was “binds”.
